Tests used:
[1] = biological target: T1, HCoV-NL63 spike antigens (bead panel) (HCoV-NL63, UniProt Q6Q1S2 19-1296); test: multiplex bead assay
T1 sequence: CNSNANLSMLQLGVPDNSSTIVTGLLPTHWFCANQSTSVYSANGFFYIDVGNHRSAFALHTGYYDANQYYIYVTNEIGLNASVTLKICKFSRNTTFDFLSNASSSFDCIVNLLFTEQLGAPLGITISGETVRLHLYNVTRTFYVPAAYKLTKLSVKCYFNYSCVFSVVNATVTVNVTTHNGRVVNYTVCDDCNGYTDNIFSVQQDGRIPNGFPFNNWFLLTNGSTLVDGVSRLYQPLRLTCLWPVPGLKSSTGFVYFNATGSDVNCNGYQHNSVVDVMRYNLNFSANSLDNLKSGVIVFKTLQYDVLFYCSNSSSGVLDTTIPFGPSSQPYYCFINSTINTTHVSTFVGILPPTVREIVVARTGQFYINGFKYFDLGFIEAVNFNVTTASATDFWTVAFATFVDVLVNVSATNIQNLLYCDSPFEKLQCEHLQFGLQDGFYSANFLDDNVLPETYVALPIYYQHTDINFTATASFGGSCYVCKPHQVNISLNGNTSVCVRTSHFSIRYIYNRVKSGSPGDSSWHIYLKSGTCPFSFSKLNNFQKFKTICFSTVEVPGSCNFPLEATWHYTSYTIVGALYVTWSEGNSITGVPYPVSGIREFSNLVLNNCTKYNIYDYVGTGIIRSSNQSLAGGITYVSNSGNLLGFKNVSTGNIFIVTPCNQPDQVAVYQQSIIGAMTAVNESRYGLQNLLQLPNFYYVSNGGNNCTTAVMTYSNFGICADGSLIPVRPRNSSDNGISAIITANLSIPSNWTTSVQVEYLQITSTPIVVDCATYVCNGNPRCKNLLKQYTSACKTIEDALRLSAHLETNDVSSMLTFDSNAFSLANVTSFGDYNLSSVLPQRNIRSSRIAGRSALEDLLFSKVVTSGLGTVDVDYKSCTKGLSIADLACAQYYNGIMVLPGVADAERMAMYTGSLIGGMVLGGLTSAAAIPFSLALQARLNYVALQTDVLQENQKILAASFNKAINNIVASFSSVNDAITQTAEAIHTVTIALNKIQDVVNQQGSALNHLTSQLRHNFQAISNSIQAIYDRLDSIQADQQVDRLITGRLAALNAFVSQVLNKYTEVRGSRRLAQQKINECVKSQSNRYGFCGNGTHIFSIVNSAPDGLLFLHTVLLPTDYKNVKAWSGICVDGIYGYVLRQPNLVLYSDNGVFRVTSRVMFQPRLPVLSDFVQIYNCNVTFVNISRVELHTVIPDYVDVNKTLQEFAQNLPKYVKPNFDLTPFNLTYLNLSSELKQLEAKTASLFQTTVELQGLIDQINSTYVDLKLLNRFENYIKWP

[2] = biological target: T2, HCoV-HKU1 spike antigens (bead panel) (HCoV-HKU1, UniProt Q5MQD0 13-1300); test: multiplex bead assay
T2 sequence: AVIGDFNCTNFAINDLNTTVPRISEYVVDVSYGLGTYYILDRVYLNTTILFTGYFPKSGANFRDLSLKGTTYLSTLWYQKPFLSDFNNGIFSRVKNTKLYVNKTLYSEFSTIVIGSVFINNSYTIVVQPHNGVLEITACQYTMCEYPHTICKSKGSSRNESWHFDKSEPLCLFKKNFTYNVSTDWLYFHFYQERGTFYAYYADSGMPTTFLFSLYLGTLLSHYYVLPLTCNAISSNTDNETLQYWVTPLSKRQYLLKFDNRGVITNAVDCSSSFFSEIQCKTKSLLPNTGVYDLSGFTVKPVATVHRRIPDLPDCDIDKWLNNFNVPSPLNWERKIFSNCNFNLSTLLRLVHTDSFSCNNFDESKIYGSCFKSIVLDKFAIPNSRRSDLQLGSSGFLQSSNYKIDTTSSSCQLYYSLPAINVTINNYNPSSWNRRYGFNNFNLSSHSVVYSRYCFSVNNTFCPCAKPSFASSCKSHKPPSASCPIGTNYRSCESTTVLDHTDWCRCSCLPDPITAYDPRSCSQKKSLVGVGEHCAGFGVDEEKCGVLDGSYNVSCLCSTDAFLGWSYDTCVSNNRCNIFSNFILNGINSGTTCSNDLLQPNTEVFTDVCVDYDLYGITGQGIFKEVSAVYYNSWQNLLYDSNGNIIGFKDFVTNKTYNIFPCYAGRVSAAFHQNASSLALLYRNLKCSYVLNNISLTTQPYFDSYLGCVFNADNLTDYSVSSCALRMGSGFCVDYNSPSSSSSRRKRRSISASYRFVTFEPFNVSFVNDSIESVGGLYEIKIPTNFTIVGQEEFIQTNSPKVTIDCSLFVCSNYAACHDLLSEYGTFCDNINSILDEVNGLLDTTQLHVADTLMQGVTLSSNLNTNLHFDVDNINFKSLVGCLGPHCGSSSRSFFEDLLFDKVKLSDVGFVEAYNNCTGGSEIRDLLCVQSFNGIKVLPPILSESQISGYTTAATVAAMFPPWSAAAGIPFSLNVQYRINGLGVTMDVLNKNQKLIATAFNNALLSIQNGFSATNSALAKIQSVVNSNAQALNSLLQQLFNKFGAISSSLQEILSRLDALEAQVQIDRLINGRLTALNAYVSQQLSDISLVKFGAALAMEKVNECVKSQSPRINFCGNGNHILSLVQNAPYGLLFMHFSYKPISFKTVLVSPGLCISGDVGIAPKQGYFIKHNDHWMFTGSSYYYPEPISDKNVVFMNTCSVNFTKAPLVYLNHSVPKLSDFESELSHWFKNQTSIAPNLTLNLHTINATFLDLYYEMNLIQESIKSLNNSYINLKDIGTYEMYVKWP

Binder	binding result [1]	binding result [2]
COV_1201 (antibody, V domains shown, human IgG1) VH: QVQLVQSGAEVKKPGASMKVSCKASGYTFTGYYIHWVRQAPGQGLEWMGRINPNSGGTNYAQKFQGRVTMTRDTSISTAYMELSRLRSDDTAVYYCAREYYYVPYGMDVWGQGTTVTVSS VL: QSALTQPASVSGSPGQSITISCTGTSSDVGGYNFVSWYQHHPGKAPKLMIYEVSNRPSGVSNRFSGSKSGNTASLTISGLQAEDEADYYCSSYTSSSTYVFGTGTKVTVL	no binding	no binding
COV_2004 (antibody, V domains shown, human IgG1) VH: QVQLVQSGAEVKKPGASVKVSCKASGYTFTGYYMHWVRQAPGQGLEWMGRINPSSGGTNYAQKFQGRVTMTRDTSISTAYMELSSLRSDDTAVYYCATDGDDGENWFDPWGQGTLVIVSS VL: DIQMTQSPSSLSASVGDRVTITCRASQGISSWLAWYQQKPEKAPKSLIYAASSLQSGVPSRFSGSGSGTDFTLTISSLQPEDFATYYCQQYNSYPYTFGQGTKLEIK	no binding	no binding
COV_1144 (antibody, V domains shown, human IgG1) VH: EVQLVESGGGLVQPGGSLRLSCAASGFTFRSFWMSWVRQAPGKGLEWVANIKEDASEKHYVDPVKGRFTISRDNAKNSLYLQLNSLRAEDMAVYYCARVGRGYCTNGLCYTAFEYWGQGTLVTVSS VL: DIQMTQSPSSLSASVGDRVTITCRTSQSISNYLNWYQQKPGKAPKLLIYAASSLQSGVPSRFSGSGSGTDFTLTISSLQPEDFATYYCQQSYSTAWTFGQGTKVEIRR	no binding	no binding
COV_1149 (antibody, V domains shown, human IgG1) VH: QVQLVESGGGVVQPGRSLRLSCAASGFTFSSYGMHWVRQAPGKGLEWVAVISYDGSNKYYADSVKGRFTISRDNSKNTLYLQMNSLRAEDTAVYYCAKTGGGYSYGLGNVWGQGTLVTVSS VL: QSALTQPASVSGSPGQSITISCTGTSSDVGGYNYVSWYQQHPGKAPKLMIYDVSNRPSGVSNRFSGSKSGNTASLTISGLQAEDEADYYCSSYTSSSTLVVFGGGTKLTVLG	no binding	no binding
COV_1151 (antibody, V domains shown, human IgG1) VH: QVQVQQWGAGLLKPSETLSLTCAVYGGSFNNYYWSWIRQPPGKGLEWIGEINHSGSTNYNPSLMSRVTISVDTSKNQFSLKLTSVTAADTAVYFCARGLPVTTFFSSYYGMDVWGQGTTVTVSS VL: EIVLTQSPGTLSLSPGERATLSCRASQSVSRTYLAWYQQKPGQAPRLLIYGASSRATGIPDRFSGSGSGTDFTLTISRLEPEDFAVYYCQHYGSSPWTFGQGTKVEIRR	no binding	no binding
COV_1166 (antibody, V domains shown, human IgG1) VH: EVQLVESGGGLVQPGGSLRLSCAVSGFTFRSFWMSWVRQTPGKGLEWVANIKEDGSEKYYVDSVKGRFTISRDNAKNSLYLQMNSLRAEDTAVYYCAREGRWELLGFAFDIWGQGTMVTVSS VL: not shown	no binding	no binding
COV_1170 (antibody, V domains shown, human IgG1) VH: QVQLVESGGGVVQPGRSLRLSCAASGFTFSTYAMHWVRQAPGKGLEWVALISYDGSNKYYADSVKGRFTISRDNSKNTLDLQMNSLRAEDTAVYYCARSLGGYRTGFDYWGQGTLVTVSS VL: DIQLTQSPSFLSASVGDRVTITCRASQGISSYLAWYQQKPGKAPKLLIYAASTLQSGVPSRFSGSGSGTEFTLTISSLQPEDFATYYCQQLNSYPPFTFGPGTKVDIKR	no binding	no binding
COV_1172 (antibody, V domains shown, human IgG1) VH: QVQLQESGPGLVKPSETLSLTCTVSGGSIRSYYWSWIRQPPGKGLEWIGYIYYSGSTNYSPSLKSRVTISVDTSKNQFSLKLNSVTAADTAVYYCARRGLGYCSGDSCSNAFDIWGQGTMVTVSS VL: DIQMTQSPSSLSASVGDRVTITCRASQSISSYLNWYQQKPGRAPELLIYDASSLQSGVPSGFSGSGSGTDFTLTISSLQPEDFATYYCQQSYSTPFTFGPGTKVDIKR	no binding	no binding
COV_2048 (antibody, V domains shown, human IgG1) VH: QVQLQESGPGLVKPSETLSLTCTVSGGSISNTSYYWGWIRQPPGKGLEWIGSIYRSGSTYYNPSLKSRVTISIDTSKNQFTLKLSSVTAADTAVYYCARDYYGDYSAKPMEYWGQGTLVTVSS VL: QSALTQPRSVSGSPGQSVTISCTGTSSDVGGYNYVSWYQQHPGKAPKLLIYDVSKRPSGVPDRFSGSKSGNTASLTISGLQAEDEADYYCCSYAGSYVVFGGGAKLTVLG	no binding	no binding
COV_2008 (antibody, V domains shown, human IgG1) VH: QVRVVQSGAEVKNPGASVKVSCKVSGYTLTELSIHWVRQAPGNGLEWMGGFDPEDGETIYAQKFQGRVTMTEDTSTDTAYMELSSLRSDDTAVYYCATAGAITGTPRNFYYYYGMDVWGQGTTVTVSS VL: not shown	no binding	no binding
COV_2056 (SEQ ID NO:792/797) (antibody, V domains shown) VH: EVQLVESGGGVVQPGRSLRLSCAASGFTFSIYGMHWVRQAPGKGLEWVALISYDGTNKYYADSVKGRFSISRDDSKNTLYLQMNSLRPEDTAVYYCAKVLMMGDSSGFSLGDAFDIWGQGTMVTVSS VL: DIQMTQSPSSVSASVGDRVTITCRASQGISNWLAWYQQKPGKAPKLLIYAASSLQSGVPSRFSGSVSGTDFTLTISSLQPEDFATYYCQQANSFPLTFGGGTKVDIKR	no binding	no binding
COV_2077 (antibody, V domains shown, human IgG1) VH: QVQLQESGPGLVKPSETLSLTCTVSGGSISSYSWSWIRQPPGKGLEWIGYIYYSGSTNYNPSLKSRVTISVDTSKNQFSLKLSSVTAADTAVYYCARESMGRYSLELRQPESAFDYWGRGTLVTVSS VL: not shown	no binding	no binding
COV_2035 (antibody, V domains shown, human IgG1) VH: QVQLVQSGAEVKKPGASVKVSCKVSGYTLPELSIHWVRQAPGKGLEWLGGFDPEDGKIIYAQKFQGRVTMTEDTSTDTAYMELSSLRSEDTAVYYCATSPAVVERGWFDPWGQGTLVTVSS VL: QSALTQPPSASGSPGQSVTISCTGTSSDVGGYNYVSWYQQHPGKAPKLMIYEVSKRPSGVPDRFSGSKSGNMASLTVSGLQAEDEANYYCSSYAGSKRVFGGGTKLTVL	no binding	–

Source: US20240101645A1 (HENRY M JACKSON FOUNDATION FOR THE ADVANCEMENT OF MILITARY …, published 2024)
